Measurements taken from patent publication US20110123542A1.

Target: T1, CCR6 receptor on human cancer cell lines (PC3, HL60, HT-29, NB4) (human) (UniProt P51684)
T1 sequence (looked up): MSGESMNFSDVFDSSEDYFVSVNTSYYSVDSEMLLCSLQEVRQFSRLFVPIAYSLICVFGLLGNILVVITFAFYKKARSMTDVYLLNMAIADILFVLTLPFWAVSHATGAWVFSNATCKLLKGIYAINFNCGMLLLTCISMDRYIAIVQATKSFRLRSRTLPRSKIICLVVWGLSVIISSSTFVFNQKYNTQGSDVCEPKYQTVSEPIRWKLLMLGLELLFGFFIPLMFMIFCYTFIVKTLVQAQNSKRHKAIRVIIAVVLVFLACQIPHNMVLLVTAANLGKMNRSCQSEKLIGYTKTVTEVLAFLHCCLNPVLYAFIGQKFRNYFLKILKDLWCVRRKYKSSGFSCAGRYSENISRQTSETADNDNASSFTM
Assay: cell-based or functional assay

## CCL20 (PeproTech EC, London, UK) (from UniProt P78556 27-96) (ligand)
  BrdU incorporation of PC3 cells, CCL20 5 and 50 ng/ml: 1.76 fold
  adhesion of HL60 cells to collagen I, CCL20 250 ng/ml: 1.6 fold
  adhesion of HL60 cells to fibronectin, CCL20 500 ng/ml: 2 fold
  adhesion of PC3 cells to collagen I, CCL20 50 ng/ml: 2.2 fold
  adhesion of PC3 cells to collagen I, CCL20 500 ng/ml: 2.09 fold
  adhesion of PC3 cells to fibronectin, CCL20 500 ng/ml: 1.45 fold
